Measurements as given in patent US20250044282A1.

Target: HIV-1 integrase fused to HA tag at the C terminus (INHA) (HIV-1 LAI (BRU)) (UniProt P03367)

HIV-1 CA (capsid protein) (from UniProt P03348 133-363)
percentage of colocalization: 70%
